Data taken from patent US20140056895 (published 2014).
Residue numbers refer to the chain shown, from its start. Names may count otherwise. “And” between values parts separate entries of the source, which are not always exact repeats. Identical values can stand only once. Like-named read-outs stand apart in the source and are kept apart here.

Key:
[1] = molecular target: T1, IL4 (human, UniProt P05112); assay: SPR
T1 chain: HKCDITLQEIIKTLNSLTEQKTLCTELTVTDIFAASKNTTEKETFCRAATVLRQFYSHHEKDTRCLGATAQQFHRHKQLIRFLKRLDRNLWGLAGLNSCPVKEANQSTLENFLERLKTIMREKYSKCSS

[2] = molecular target: T1, IL4; assay: SPR
[3] = molecular target: T1, IL4; assay: SPR
[4] = molecular target: T1, IL4; assay: SPR
[5] = molecular target: T1, IL4; assay: SPR
[6] = molecular target: T2, IL13 (human, UniProt P35225)
T2 sequence (P35225 35-146): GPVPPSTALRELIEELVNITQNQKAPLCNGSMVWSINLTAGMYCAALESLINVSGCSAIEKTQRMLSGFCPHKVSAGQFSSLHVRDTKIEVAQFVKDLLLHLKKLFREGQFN

[7] = molecular target: T1, IL4
[8] = molecular target: EGFR (human, UniProt P00533); assay: SPR
[9] = molecular target: T2, IL13; assay: SPR
[10] = molecular target: T2, IL13; assay: SPR; remark: listed apart in the source
[11] = molecular target: T2, IL13; assay: SPR; remark: listed apart in the source
[12] = molecular target: T2, IL13; assay: SPR; remark: listed apart in the source
[13] = molecular target: T2, IL13; assay: SPR; remark: listed apart in the source

B1: CODV-Ig LC4:HC4, IL4 arm (antibody, V domains shown)
VH: QVQLQQSGPELVKPGASVKISCKASGYSFTSYWIHWIKQRPGQGLEWIGMIDPSDGETRLNQRFQGRATLTVDESTSTAYMQLRSPTSEDSAVYYCTRLKEYGNYDSFYFDVWGAGTLVTVSS
VL: DIQMTQSPASLSVSVGDTITLTCHASQNIDVWLSWFQQKPGNIPKLLIYKASNLHTGVPSRFSGSGSGTGFTLTISSLQPEDIATYYCQQAHSYPFTFGGGTKLEIKR
- Kd [1]: 0.00914 nM

B2: CODV-Ig heavy-chain template (batches 201-270, 501-508, 704, 801), IL4 arm (antibody, V domains shown)
VH: B1 VH
VL: B1 VL
- Kd [2]: 0.003 nM
- Kd [3]: 0.003 nM

B3: CODV-Ig LC4:HC6, IL4 arm (antibody, V domains shown)
VH: B1 VH
VL: B1 VL
- Kd [1]: 0.0111 nM

B4: CODV 706, IL4 arm (antibody, V domains shown)
VH: B1 VH with G44C
VL: B1 VL with G100C
- Kd [2]: 0.008 nM

B5: parental anti-IL4 mAb (8D4 humanized) (antibody, V domains shown)
VH: B1 VH
VL: B1 VL
- Kd [1]: 0.00783 nM

B6: CODV-Fab 421, IL4 arm (antibody, V domains shown)
VH: B1 VH
VL: B1 VL
- Kd [4]: 0.012 nM

B7: CODV-Ig Fc cysteine variants (602, 603), IL4 arm (antibody, V domains shown)
VH: B1 VH
VL: B1 VL
- Kd [5]: 0.004 nM and 0.01 nM

B8: Cross-over IL4(G4S2)IL13CH1-Fc / IL13(G4S2)IL4CL (antibody)
chain 1: not shown
chain 2: DIVLTQSPASLAVSLGQRATISCRASESVDSYGQSYMHWYQQKAGQPPKLLIYLASNLESGVPARFSGSGSRTDFTLTIDPVQAEDAATYYCQQNAEDSRTFGGGTKLEIKGGGGSGGGGSDIQMTQSPASLSVSVGDTITLTCHASQNIDVWLSWFQQKPGNIPKLLIYKASNLHTGVPSRFSGSGSGTGFTLTISSLQPEDIATYYCQQAHSYPFTFGGGTKLEIKRTVAAPSVFIFPPSDEQLKSGTASVVCLLNNFYPREAKVQWKVDNALQSGNSQESVTEQDSKDSTYSLSSTLTLSKADYEKHKVYACEVTHQGLSSPVTKSFNRGEC
- binding result [6]: no binding
- binding result [7]: no binding

B9: Cross-over IL4(G4S)IL13CH1-Fc / IL13(G4S2)IL4CL (antibody)
chain 1: not shown
chain 2: B8 chain 2
- binding result [6]: no binding

B10: Cross-over IL4(G4S)IL13CH1-Fc / IL13(G4S)IL4CL (antibody)
chain 1: not shown
chain 2: DIVLTQSPASLAVSLGQRATISCRASESVDSYGQSYMHWYQQKAGQPPKLLIYLASNLESGVPARFSGSGSRTDFTLTIDPVQAEDAATYYCQQNAEDSRTFGGGTKLEIKGGGGSDIQMTQSPASLSVSVGDTITLTCHASQNIDVWLSWFQQKPGNIPKLLIYKASNLHTGVPSRFSGSGSGTGFTLTISSLQPEDIATYYCQQAHSYPFTFGGGTKLEIKRTVAAPSVFIFPPSDEQLKSGTASVVCLLNNFYPREAKVQWKVDNALQSGNSQESVTEQDSKDSTYSLSSTLTLSKADYEKHKVYACEVTHQGLSSPVTKSFNRGEC
- binding result [6]: no binding

B11: Cross-over IL4(G4S2)IL13CH1-Fc / IL13(G4S)IL4CL (antibody)
chain 1: not shown
chain 2: B10 chain 2
- binding result [6]: no binding

B12: CODV-Fab 413, EGFR arm (antibody)
chain 1: not shown
chain 2: EIVLTQSPGTLSVSPGERATLSCRASQSIGSSLHWYQQKPGQAPRLLIKYASQSLSGIPDRFSGSGSGTDFTLTISRLEPEDFAVYYCHQSSRLPHTFGQGTKVEIKGGGGGGGEIVMTQSPATLSLSPGERATLSCRASQSVSSYLAWYQQKPGQAPRLLIYDASNRATGIPARFSGSGSGTDFTLTISSLEPEDFAVYYCHQYGSTPLTFGGGTKAEIKGGGGGRTVAAPSVFIFPPSDEQLKSGTASVVCLLNNFYPREAKVQWKVDNALQSGNSQESVTEQDSKDSTYSLSSTLTLSKADYEKHKVYACEVTHQGLSSPVTKSFNRGEC
- Kd [8]: 42 nM

B13: CODV-Ig 411 HC13/LC13, EGFR arm (antibody)
chain 1: not shown
chain 2: B12 chain 2
- Kd [8]: 124 nM

B14: CODV-Ig heavy-chain template (batches 201-270, 501-508, 704, 801), IL13 arm (antibody, V domains shown)
VH: EVQLKESGPGLVAPGGSLSITCTVSGFSLTDSSINWVRQPPGKGLEWLGMIWGDGRIDYADALKSRLSISKDSSKSQVFLEMTSLRTDDTATYYCARDGYFPYAMDFWGQGTSVTVSS
VL: DIVLTQSPASLAVSLGQRATISCRASESVDSYGQSYMHWYQQKAGQPPKLLIYLASNLESGVPARFSGSGSRTDFTLTIDPVQAEDAATYYCQQNAEDSRTFGGGTKLEIK
- Kd [9]: 0.025 nM
- Kd [10]: 0.025 nM

B15: parental anti-IL13 mAb (B-B13 humanized) (antibody, V domains shown)
VH: B14 VH
VL: B14 VL
- Kd [11]: 0.0818 nM

B16: CODV-Fab 421, IL13 arm (antibody, V domains shown)
VH: B14 VH
VL: B14 VL
- Kd [12]: 0.048 nM

B17: CODV-Ig LC4:HC6, IL13 arm (antibody, V domains shown)
VH: B14 VH
VL: B14 VL
- Kd [11]: 0.118 nM

B18: CODV-Ig Fc cysteine variants (602, 603), IL13 arm (antibody, V domains shown)
VH: B14 VH
VL: B14 VL
- Kd [13]: 0.064 nM and 0.1 nM

B19: CODV-Ig LC4:HC4, IL13 arm (antibody, V domains shown)
VH: B14 VH
VL: B14 VL
- Kd [11]: 0.0934 nM
